In patent US20240285753A1 (DUKE UNIVERSITY, published 2024):
Substitutions are numbered along the chain they refer to.

What was measured:
S2hlx-Ex15 F1148A = molecular target: T1, S2hlx-Ex15 F1148A; experiment: ELISA; antigen coated, mAb titrated
T1 epitope scaffold: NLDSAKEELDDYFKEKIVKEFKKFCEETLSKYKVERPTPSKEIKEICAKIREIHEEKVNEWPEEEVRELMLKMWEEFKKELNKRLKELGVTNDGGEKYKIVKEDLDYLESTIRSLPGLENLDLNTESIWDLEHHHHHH

S2hlx-Ex8-Trx [1] = molecular target: T2, S2hlx-Ex8-Trx; experiment: SPR, mAb captured, antigen as analyte
T2 chain: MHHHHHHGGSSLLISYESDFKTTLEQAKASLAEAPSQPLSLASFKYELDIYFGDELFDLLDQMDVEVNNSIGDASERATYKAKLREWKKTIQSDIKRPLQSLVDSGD

S2hlx-Ex34 [2] = molecular target: T3, S2hlx-Ex34; experiment: SPR, mAb captured, antigen as analyte
T3 chain: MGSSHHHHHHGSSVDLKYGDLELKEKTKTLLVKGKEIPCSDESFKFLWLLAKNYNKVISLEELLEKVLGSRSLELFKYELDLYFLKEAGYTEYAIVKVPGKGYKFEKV

S2hlx-Ex20 = molecular target: T4, S2hlx-Ex20; experiment: SPR, mAb captured, antigen as analyte
T4 chain: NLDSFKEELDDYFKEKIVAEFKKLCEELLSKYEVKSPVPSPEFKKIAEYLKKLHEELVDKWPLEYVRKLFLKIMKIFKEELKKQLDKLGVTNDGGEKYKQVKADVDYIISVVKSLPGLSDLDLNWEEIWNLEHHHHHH

S2hlx-Ex17 = molecular target: T5, S2hlx-Ex17; experiment: SPR, mAb captured, antigen as analyte
T5 chain: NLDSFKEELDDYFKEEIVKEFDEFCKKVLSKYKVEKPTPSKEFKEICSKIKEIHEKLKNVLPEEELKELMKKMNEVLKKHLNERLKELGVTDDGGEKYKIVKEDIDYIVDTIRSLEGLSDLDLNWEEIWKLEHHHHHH

S2hlx-Ex15 = molecular target: T6, S2hlx-Ex15; experiment: SPR, mAb captured, antigen as analyte
T6 chain: T1 epitope scaffold with A5F

S2hlx-4 = experiment: SPR, mAb captured, antigen as analyte
Sequence of S2hlx-4 (chain, as listed by the source): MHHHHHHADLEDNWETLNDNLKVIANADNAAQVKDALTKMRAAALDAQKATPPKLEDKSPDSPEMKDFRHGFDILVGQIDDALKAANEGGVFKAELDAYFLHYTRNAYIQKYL

S2hlx-Ex34 L1145A = molecular target: T7, S2hlx-Ex34 L1145A; experiment: ELISA; antigen coated, mAb titrated
T7 epitope scaffold: T3 chain with L73A

S2hlx-Ex34 F1148A = molecular target: T8, S2hlx-Ex34 F1148A; experiment: ELISA; antigen coated, mAb titrated
T8 epitope scaffold: T3 chain with F76A

S2hlx-Ex34 [3] = molecular target: T3, S2hlx-Ex34; experiment: ELISA; antigen coated, mAb titrated
S2hlx-Ex54 = molecular target: T9, S2hlx-Ex54; experiment: SPR, mAb captured, scaffold as analyte
T9 chain: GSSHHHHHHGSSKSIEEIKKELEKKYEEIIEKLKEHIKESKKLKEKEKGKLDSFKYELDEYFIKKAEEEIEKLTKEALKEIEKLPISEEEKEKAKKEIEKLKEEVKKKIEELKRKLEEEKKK

S2hlx-15 = molecular target: T10, S2hlx-15; experiment: SPR, mAb captured, scaffold as analyte
T10 chain: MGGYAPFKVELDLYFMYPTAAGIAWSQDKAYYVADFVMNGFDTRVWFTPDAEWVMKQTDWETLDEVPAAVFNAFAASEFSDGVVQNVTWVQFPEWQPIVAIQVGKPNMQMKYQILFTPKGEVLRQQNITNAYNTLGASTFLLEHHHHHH

S2hlx-Ex37 = molecular target: T11, S2hlx-Ex37; experiment: SPR, mAb captured, scaffold as analyte
T11 chain: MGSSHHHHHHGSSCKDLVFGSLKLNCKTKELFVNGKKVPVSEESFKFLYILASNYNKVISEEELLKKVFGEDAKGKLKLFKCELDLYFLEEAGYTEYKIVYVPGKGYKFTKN

S2hlx-Ex25 = molecular target: T12, S2hlx-Ex25; experiment: SPR, mAb captured, scaffold as analyte
T12 chain: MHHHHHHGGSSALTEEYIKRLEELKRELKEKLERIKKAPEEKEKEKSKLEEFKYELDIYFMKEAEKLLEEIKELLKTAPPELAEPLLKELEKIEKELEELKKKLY

S2hlx-Ex8-Trx [4] = molecular target: T2, S2hlx-Ex8-Trx; experiment: SPR, mAb captured, scaffold as analyte
S2hlx-Ex34 [5] = molecular target: T3, S2hlx-Ex34; experiment: SPR, mAb captured, scaffold as analyte

B1: S2P6 mAb (antibody, V domains shown)
VH: EVQLVQSGAEVKKPGASVKVSCKASGYTFTSQYMHWVRQAPGQGLEWIGIINPSGVHTSYAQKFQGRVTLTRDTSTSTLYMELSSLRSEDTAVYYCARGSPKGAFDYWGQGTLVTVSS
VL: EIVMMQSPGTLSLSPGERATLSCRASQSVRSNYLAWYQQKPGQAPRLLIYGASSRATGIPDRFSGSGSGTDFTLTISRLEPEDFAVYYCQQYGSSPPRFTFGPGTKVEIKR
**Q.** B1 was tested. Which “EC50 (read off the curve)” value (S2hlx-Ex15 F1148A) did it give?
**A.** ~0.07 µg/mL

**Q.** What about the Kd (S2hlx-Ex8-Trx [1]) of the same binder?
**A.** 568 nM

**Q.** What about the Kd (S2hlx-Ex34 [2]) of the same binder?
**A.** 143 nM

**Q.** What about the Kd (S2hlx-Ex20) of the same binder?
**A.** 10.7 nM

**Q.** And the Kd (S2hlx-Ex17)?
**A.** 29.6 nM

**Q.** And the Kd (S2hlx-Ex15)?
**A.** 4 nM

**Q.** And the Kd (S2hlx-4)?
**A.** 47.7 nM

**Q.** And the “EC50 (read off the curve)” value (S2hlx-Ex34 L1145A)?
**A.** ~0.02 µg/mL

**Q.** What about the “EC50 (read off the curve)” value (S2hlx-Ex34 F1148A) of the same binder?
**A.** ~0.09 µg/mL

**Q.** What about the “EC50 (read off the curve)” value (S2hlx-Ex34 [3]) of the same binder?
**A.** ~0.02 µg/mL

**Q.** And the Kd (S2hlx-Ex54)?
**A.** 45 nM

**Q.** And the Kd (S2hlx-15)?
**A.** 0.7 nM

**Q.** And the Kd (S2hlx-Ex37)?
**A.** 664 nM

**Q.** What about the Kd (S2hlx-Ex25) of the same binder?
**A.** 612 nM

**Q.** What about the Kd (S2hlx-Ex8-Trx [4]) of the same binder?
**A.** 330 nM

**Q.** What about the Kd (S2hlx-Ex34 [5]) of the same binder?
**A.** 82 nM
